Experimental data reported in patent US20250296999A1.

Molecular target: alpha v beta 3 integrin on human podocytes (human) (UniProt P06756)
Sequence (P06756 31-1048, chain 1 of 2): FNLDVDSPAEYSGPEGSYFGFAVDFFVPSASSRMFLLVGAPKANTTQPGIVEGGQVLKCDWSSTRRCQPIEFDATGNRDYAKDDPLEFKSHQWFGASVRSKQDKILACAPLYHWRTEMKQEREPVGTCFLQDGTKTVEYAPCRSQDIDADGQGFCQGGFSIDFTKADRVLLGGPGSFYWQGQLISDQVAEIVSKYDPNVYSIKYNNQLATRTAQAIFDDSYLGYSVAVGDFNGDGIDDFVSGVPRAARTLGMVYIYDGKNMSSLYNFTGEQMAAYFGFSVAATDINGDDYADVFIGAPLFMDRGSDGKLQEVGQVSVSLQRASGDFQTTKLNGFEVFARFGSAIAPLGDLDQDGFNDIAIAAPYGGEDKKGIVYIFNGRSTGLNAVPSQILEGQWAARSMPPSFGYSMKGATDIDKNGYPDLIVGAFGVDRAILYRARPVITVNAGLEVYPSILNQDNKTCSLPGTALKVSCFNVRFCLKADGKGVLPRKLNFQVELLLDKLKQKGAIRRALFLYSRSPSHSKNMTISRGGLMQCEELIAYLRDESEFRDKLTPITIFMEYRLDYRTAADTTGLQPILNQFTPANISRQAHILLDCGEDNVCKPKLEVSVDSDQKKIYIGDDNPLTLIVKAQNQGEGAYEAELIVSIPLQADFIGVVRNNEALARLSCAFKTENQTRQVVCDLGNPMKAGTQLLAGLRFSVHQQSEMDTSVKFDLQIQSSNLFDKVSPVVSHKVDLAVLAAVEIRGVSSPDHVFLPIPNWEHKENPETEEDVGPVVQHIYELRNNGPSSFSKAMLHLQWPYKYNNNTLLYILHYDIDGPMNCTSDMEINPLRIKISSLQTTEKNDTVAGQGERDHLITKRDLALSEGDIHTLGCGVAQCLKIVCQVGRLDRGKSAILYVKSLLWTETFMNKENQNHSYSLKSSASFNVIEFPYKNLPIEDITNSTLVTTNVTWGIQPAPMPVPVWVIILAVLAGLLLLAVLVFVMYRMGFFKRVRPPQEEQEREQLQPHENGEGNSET
Sequence (P05106 27-788, chain 2 of 2, further chain): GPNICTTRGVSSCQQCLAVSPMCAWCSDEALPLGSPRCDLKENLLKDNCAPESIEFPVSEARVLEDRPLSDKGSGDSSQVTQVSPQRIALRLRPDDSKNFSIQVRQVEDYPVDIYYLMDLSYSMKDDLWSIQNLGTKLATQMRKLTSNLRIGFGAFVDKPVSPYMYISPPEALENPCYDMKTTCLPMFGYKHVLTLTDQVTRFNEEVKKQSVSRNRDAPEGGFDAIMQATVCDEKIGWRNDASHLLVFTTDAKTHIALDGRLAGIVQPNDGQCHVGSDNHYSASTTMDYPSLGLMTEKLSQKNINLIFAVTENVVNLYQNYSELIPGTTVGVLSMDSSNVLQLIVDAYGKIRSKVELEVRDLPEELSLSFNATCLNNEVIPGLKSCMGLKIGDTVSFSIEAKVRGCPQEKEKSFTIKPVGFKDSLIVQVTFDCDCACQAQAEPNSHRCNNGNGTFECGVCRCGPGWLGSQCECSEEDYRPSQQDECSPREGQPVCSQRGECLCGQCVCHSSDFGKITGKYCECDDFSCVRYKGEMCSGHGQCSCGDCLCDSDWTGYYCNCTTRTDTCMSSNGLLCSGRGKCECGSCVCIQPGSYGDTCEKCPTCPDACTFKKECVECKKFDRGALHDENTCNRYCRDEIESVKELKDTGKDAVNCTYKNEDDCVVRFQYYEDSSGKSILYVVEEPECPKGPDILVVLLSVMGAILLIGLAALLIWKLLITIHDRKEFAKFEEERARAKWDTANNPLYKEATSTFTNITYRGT

EC50 (read off the curve): 2 ng/mL
Substance: human D2D3 protein (C-terminal uPAR fragment, D2D3 protein with Linker) (from UniProt Q03405 100-303) (receptor)
